This note sets out measurements from article PMC6480712.

The experiment deals with T1, human dopamine D2 long receptor (D2LR) fused C-terminally to LgBiT or SmBiT of NanoLuciferase (human), P14416.
T1 chain: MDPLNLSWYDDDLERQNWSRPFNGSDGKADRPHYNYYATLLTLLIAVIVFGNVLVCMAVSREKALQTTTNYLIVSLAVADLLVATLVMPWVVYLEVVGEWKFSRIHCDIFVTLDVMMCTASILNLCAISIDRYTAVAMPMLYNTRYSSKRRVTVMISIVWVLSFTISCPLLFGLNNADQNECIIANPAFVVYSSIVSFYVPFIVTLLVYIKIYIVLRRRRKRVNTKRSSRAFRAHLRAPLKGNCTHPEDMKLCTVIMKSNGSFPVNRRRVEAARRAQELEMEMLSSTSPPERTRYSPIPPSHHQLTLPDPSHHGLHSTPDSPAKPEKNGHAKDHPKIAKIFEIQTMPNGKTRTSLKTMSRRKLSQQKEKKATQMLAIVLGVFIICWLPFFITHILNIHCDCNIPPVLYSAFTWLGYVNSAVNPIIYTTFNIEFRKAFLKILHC
The experiment is described as follows: split reporter (BiFC, NanoBiT); NanoBiT in HEK293T cells co-transfected with 400 ng D2LR–SmBiT, D2LR–LgBiT and increasing native (untagged) D2LR DNA (0–600 ng), without or with 10 µM spiperone; muscarinic M1 receptor co-transfected instead as control. The note with it: remark: other sources report otherwise.

B1: human dopamine D2 long receptor (D2LR) fused C-terminally to LgBiT or SmBiT of NanoLuciferase, P14416-1 1-443 (receptor)
chain: T1 chain
B1 returned a fold increase of the luminescent signal with co-transfected native D2LR (4:4:6) against none of 20 fold and a fold increase of the luminescent signal with co-transfected native D2LR (4:4:6) against none, cells treated with 10 µM spiperone of 5 fold.
